In test [1] the target is human B7-H3 (human) (UniProt Q5ZPR3). As to the kind of experiment: flow cytometry (FACS) on CHO-K1 cells expressing human B7-H3; goat anti-human IgG (H+L) secondary. For orientation: A flow cytometer gives signals particle by particle.
For test [2] the target is unchanged. As to the kind of experiment: cell-based or functional assay.
The target is the same in test [3]. As to the kind of experiment: flow cytometry (FACS) on CHO-K1/B7-H3 cells.
Test [4] has the same target. As to the kind of experiment: cell-based or functional assay. This is another data set of the same source.

Read-outs that look alike come from different tables or passages of the source.

Chain of UniProt Q5ZPR3 (Q5ZPR3 29-534): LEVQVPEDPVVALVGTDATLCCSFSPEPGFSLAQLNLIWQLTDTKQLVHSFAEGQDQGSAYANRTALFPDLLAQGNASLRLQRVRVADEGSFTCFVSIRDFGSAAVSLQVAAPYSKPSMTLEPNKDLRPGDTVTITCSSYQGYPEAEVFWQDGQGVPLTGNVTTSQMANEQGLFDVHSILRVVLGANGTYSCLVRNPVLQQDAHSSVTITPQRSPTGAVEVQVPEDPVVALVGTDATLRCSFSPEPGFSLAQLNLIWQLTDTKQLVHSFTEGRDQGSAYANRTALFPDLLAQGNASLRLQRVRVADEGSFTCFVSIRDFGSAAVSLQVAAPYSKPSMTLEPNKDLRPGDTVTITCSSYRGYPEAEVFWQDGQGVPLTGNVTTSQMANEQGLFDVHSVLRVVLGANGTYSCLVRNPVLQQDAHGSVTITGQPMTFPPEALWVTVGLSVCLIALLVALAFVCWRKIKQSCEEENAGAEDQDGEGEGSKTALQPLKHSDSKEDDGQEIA

For the molecule MGA271-hIgG1 (antibody), the EC50 with human B7-H3 (human) [1] is 81600 pM. This counts as double-digit nanomolar. On to DS-5573a (antibody), for which, in the test with human B7-H3 (human) [2], the CDC % Relative activity (EC50 of positive control DS-5573a / EC50 of sample) came out at 100%; the CDC % Relative activity (EC50 of positive control DS-5573a / EC50 of sample), plate 01 amounted to 100%; the CDC % Relative activity (EC50 of positive control DS-5573a / EC50 of sample), plate 02 came to 100%; the CDC EC50 (% target cell lysis, Cell Titer-Glo) is 0.69 µg/mL. Also, in the test with human B7-H3 (human) [2], the CDC EC50 (% target cell lysis, Cell Titer-Glo), plate 01 is 0.595 µg/mL and the CDC EC50 (% target cell lysis, Cell Titer-Glo), plate 02 is 0.628 µg/mL. With MGA271 (Enoblituzumab) (antibody), in the test with human B7-H3 (human) [1], the EC50 came to 102000 pM. For the same molecule, in the test with human B7-H3 (human) [2], the ADCC % Relative activity (EC50 of positive control MGA-271 / EC50 of sample), plate 01 was determined as 100%; the ADCC % Relative activity (EC50 of positive control MGA-271 / EC50 of sample), plate 02 stood at 100%; the ADCC EC50 (% target cell lysis, LDH; NK92/CD16a-VV effector cells), plate 01 stood at 0.0394 µg/mL; the ADCC EC50 (% target cell lysis, LDH; NK92/CD16a-VV effector cells), plate 02 came to 0.0443 µg/mL. The EC50 with human B7-H3 (human) [3] stood at 20800 pM.

B1: 47F3F10B4 (antibody, V domains shown)
VH: EVQLQQSGPELVKPGASVKMSCKASGYTFTDHYMHWVKQSHGKSLEWIGYIFPNNGVSGYNQNFKDKATLTVDKSSSTAYMDLRSLTPEDSAVYYCTRRQLGLGTMDYWGQGTSVTVSS
VL: DIVLTQSPASLAVSLGQRATISCRASKSVSTSGYNYMHWYQQKPGQPPKLLIYLASNLESGVPARFSGSGSGTDFTLNIHPVEEEDAATYYCQHSKELPWTFGGGTKLEIK
In the test with human B7-H3 (human) [3], B1 had a half-maximal effective concentration (EC50) of 751 pM.

B2: 47F3F10B4-VH1-VL4(IgG1m) (antibody)
heavy: QVQLVQSGAEVKKPGASVKVSCKASGYTFTDHYMHWVRQAPGQGLEWMGYIFPNNGVSGYNQNFKDRVTMTRDTSISTAYMELSRLRSDDTAVYYCARRQLGLGTMDYWGQGTLVTVSSASTKGPSVFPLAPSSKSTSGGTAALGCLVKDYFPEPVTVSWNSGALTSGVHTFPAVLQSSGLYSLSSVVTVPSSSLGTQTYICNVNHKPSNTKVDKRVEPKSCDKTHTCPPCPAPELVGGPSVFLLPPKPKDTLMISRTPEVTCVVVDVSHEDPEVKFNWYVDGVEVHNAKTKPPEEQYNSTLRVVSVLTVLHQDWLNGKEYKCKVSNKALPAPIEKTISKAKGQPREPQVYTLPPSREEMTKNQVSLTCLVKGFYPSDIAVEWESNGQPENNYKTTPLVLDSDGSFFLYSKLTVDKSRWQQGNVFSCSVMHEALHNHYTQKSLSLSPGK
light: DIQMTQSPSSLSASVGDRVTITCRASKSVSTSGYNYMHWYQQKPGKAPKLLIYLASNLESGVPSRFSGSGSGTDFTLTISSLQPEDFATYYCQHSKELPWTFGQGTKVEIKRTVAAPSVFIFPPSDEQLKSGTASVVCLLNNFYPREAKVQWKVDNALQSGNSQESVTEQDSKDSTYSLSSTLTLSKADYEKHKVYACEVTHQGLSSPVTKSFNRGEC
B2 gave a half-maximal effective concentration (EC50) with human B7-H3 (human) [1] of 299 pM. Besides, in the test with human B7-H3 (human) [4], the CDC % Relative activity (EC50 of positive control DS-5573a / EC50 of sample), plate 02 turned out to be 445% and the CDC EC50 (% target cell lysis, Cell Titer-Glo), plate 02 was determined as 0.141 µg/mL.

B3: 31H11B1 (antibody, V domains shown)
VH: QVQLQQPGAELGKPGTSVKLSCKASGYTFTSYWMHWVKQRPGQGLEWIGHINPNSGSTNQNAKFKNKATLTVDESSSTAYMQLSTLTSEDSAVYYCTRSGSNYRRNYFDYWGQGTTLTVSS
VL: DIQMTQSSSYLSVSLGGRVTITCKASDHINNWLAWYQQKPGNAPRLLISGATSLETGVPSRFSGSGSGKDYTLSITSLQTEDVATYYCQQYWSTPLTFGAGTKLELK
For B3, the EC50 in the test with human B7-H3 (human) [3] is 977 pM.

B4: 12C9F1B5-VH4-VL2 (antibody, human IgG1, kappa, V domains shown)
VH: QVQLVQSGAEVKKPGASVKVSCKASGFTNYGMNWVRQAPGQRLEWMGWINPYSGVPTYADDFKGRVTITRDTSASTAYMELSSLRSEDTAVYYCARDDGFHYTMDYWGQGTLVTVSS
VL: DIVMTQSPLSLPVTPGEPASISCRSSQNLVHSNGITYLHWYLQKPGQSPQLLIYKVSNRFSGVPDRFSGSGSGTDFTLKISRVEAEDVGVYYCSQSTLVPWTFGQGTKVEIKR
With B4, in the test with human B7-H3 (human) [1], the concentration giving a half-maximal response (EC50) was 338 pM. Also, in the test with human B7-H3 (human) [4], the CDC % Relative activity (EC50 of positive control DS-5573a / EC50 of sample), plate 01 was determined as 155% and the CDC EC50 (% target cell lysis, Cell Titer-Glo), plate 01 came to 0.384 µg/mL.

B5: 12C9F1B5-VH2.1-VL2 (antibody, human IgG1, kappa, V domains shown)
VH: QVQLVQSGAEVKKPGASVKVSCKASGFTNYGMNWVRQAPGQGLEWMGWINPYSGVPTYADDFKGRVTMTRDTSISTAYMELSRLRSDDTAVYYCARDDGFHYTMDYWGQGTLVTVSS
VL: DIVMTQSPLSLPVTPGEPASISCRSSQNLVHSNGITYLHWYLQKPGQSPQLLIYKVSNRFSGVPDRFSGSGSGTDFTLKISRVEAEDVGVYYCSQSTLVPWTFGQGTKVEIKR
For B5, the EC50 in the test with human B7-H3 (human) [1] is 153 pM.

B6: 43H11G12-VH4-VL2 (antibody, human IgG1, kappa, V domains shown)
VH: QVQLVQSGAEVKKPGASVKVSCKASGYNFRDFGMNWVRQAPGQRLEWMGWLNSYSGVPTYADDFKGRVTITRDTSASTAYMELSSLRSEDTAVYYCARDDGYNYTMNYWGQGTLVTVSS
VL: DIVMTQSPLSLPVTPGEPASISCRSSQSLVHSNGITYLHWYLQKPGQSPQLLIYKVSNRFSGVPDRFSGSGSGTDFTLKISRVEAEDVGVYYCSQSTHVPWTFGQGTKVEIKR
In the test with human B7-H3 (human) [1], B6 came in with an EC50 of 155 pM. For the same molecule, in the test with human B7-H3 (human) [4], the CDC % Relative activity (EC50 of positive control DS-5573a / EC50 of sample), plate 01 is 104% and the CDC EC50 (% target cell lysis, Cell Titer-Glo), plate 01 came to 0.57 µg/mL.

B7: 12C9F1B5 (antibody, V domains shown)
VH: QIQLVQSGPELKKPGETVKISCKASGFTNYGMNWVKQAPGKGLKWMGWINPYSGVPTYADDFKGRFAFSLETSASTAYLQINNLKNEDTATYFCARDDGFHYTMDYWGQGTSVTVSS
VL: DVVLTQTPLSLPVSLGDQASISCRSSQNLVHSNGITYLHWYLQKPGQSPKLLIYKVSNRFSGVPDRFSGSGSGTDFTLTISRVEAEDLGVYFCSQSTLVPWTFGGGTKLEIK
As for B7, the half-maximal effective concentration (EC50) with human B7-H3 (human) [3] worked out at 4760 pM.

B8: 43H11G12 (antibody, V domains shown)
VH: QIQLVQSGPELKKPGETVKISCKASGYNFRDFGMNWVKQAPGKGLKWMGWLNSYSGVPTYADDFKGRFVLSLETSASTAYLQINNLINEDTATYFCGRDDGYNYTMNYWGQGTSVTVSS
VL: DVVMTQAPLSLPVSLGDQASISCRSSQSLVHSNGITYLHWYLQRAGQSPQLLIYKVSNRFSGVPDRFSGSGSGTDFTLKISRVEAEDLGVYFCSQSTHVPWTFGGGTKLEIK
B8 had an EC50 with human B7-H3 (human) [3] of 6380 pM. This EC50 and that of the molecule before are within 1.5-fold of each other.

B9: 37F11A10 (antibody, V domains shown)
VH: QIQLVQSGPELKKPGETVKISCKASGDTFRNYGMNWVKQAPGKGLKWMGWINPYSGVPTYADDFKGRFAFSLETSASTAFLQINNLKNEDTATYFCARDDGFHYTMDYWGLGTSVTVSS
VL: DVVMTQTPLSLPVSLGDQASISCRSSQSLLHSNGITYLHWYLQKPGQSPKLLTYKVSHRFSGVPDRFSGSGSGTDFTLKISRVEAEDLGVYFCSQSTHVPWTFGGGTKLEIR
In the test with human B7-H3 (human) [3], B9 yielded a 50% effective concentration (EC50) of 1380 pM.

B10: 38F11B2 (antibody, V domains shown)
VH: QIQLVQSGPELKKPGETVKISCKASGYTFIDYGMNWVKQAPGKGLKWMGWINIYSGVPTYADDFKGRFAFSLETSANTAYLQINNLKNEDTATYFCARDDGYHYTMNYWGQGTSVTVSS
VL: DIVMTQTPLSLPVSLGDQASISCRSSQSLVHSNGITYLHWYLQKSGQSPKLLIYKVSNRFSGVPDRFSGSGSGTAFTLKISRVEAEDLGVYFCSQSTHVPWTFGGGTKLEIK
In the test with human B7-H3 (human) [3], B10 registered an EC50 of 651 pM. Compared with the last molecule, the EC50 is about 2.1-fold lower.

B11: 47C7E3 (antibody, V domains shown)
VH: QIQLVQSGPELKKPGETVKISCKASGYTFTNFGMNWVKQAPGKGLKWMGWIYTPSGVPIYADDFKGRFAVSLETSASTAYLQINNLKNEDTATYFCARDDGYYYTMDYWGQGTSVTVSS
VL: DDVMTQTPLSLPVSLGDHASISCRSSQSLVHSNGDTYLHWYLQKPGQSPKLLIYKVSNRFSGVPDRFSGSGSGTDFTLKISRVEAEDLGVYFCSQSTHVPWTFGGGTKLEIK
In the test with human B7-H3 (human) [3], B11 gave an EC50 of 870 pM.

B12: 38D6A4 (antibody, V domains shown)
VH: QIQLVQSGPELKKPGEAVKISCKASGSTFTDFGMNWVRQAPGKGLKWMGWINPYSGVPTYADEFKGRFVFSLETSARVAYMQINDLKNEDTATYFCARDDGYHYTMDYWGQGTSVTVSS
VL: DVVMTQTPLPLPVSLGDQASISCRSSQSLIHSNGITYLHWYLQKPGQSPKLLIYKVSNRFSGVPDRFTGSGSGTDFTLKISRVEAEDLGVYFCSQSTHVPWTFGGGSKLEIR
B12 had an EC50 in the test with human B7-H3 (human) [3] of 1780 pM.

B13: 34A9C12 (antibody, V domains shown)
VH: QIQLVQSGPELKKSGETVKISCKASGFTNYGINWVKQAPGKGLKWMGWINPYSGVPTYADDFKGRFAFSLETSASTAYLQINNLKNEDSATYFCARDDGFHYTMDYWGQGTSVTVSS
VL: DVVLIQTPLSLPVSLGDQASISCRSSQNLVHSNGITYLHWYLQKPGQSPKLLIYKVSNRFSGVPDRFSGSGSGTDFTLKISRVEAEDLGVYFCSQSTLVPWTFGGGTKLEIK
The molecule B13 displayed an EC50 with human B7-H3 (human) [3] of 822 pM.

B14: 37D11F5B8 (antibody, V domains shown)
VH: QIQLVQSGPELKKPGETVKISCKASGDTFRNNGMNWVKQAPGKGLKWMGWINPYSGVPTYADDFKGRFAFSLETSASTAFLQINNLKNEDTATYFCARDDGYHYTMDFWGLGTSVTVSS
VL: DVVMTQTPLSLPVSLGDQASISCRSSQSLVHSNGITYLHWYLQKPGQSPKLLTYKVSHRFSGVPDRFSGSGSGTDFTLKISRVEAEDLGVYFCSQSTHVPWTFGGGTKLEIK
Turning to B14, the 50% effective concentration (EC50) with human B7-H3 (human) [3] worked out at 909 pM.

B15: 47F3F10B4-VH2-VL4 (antibody, human IgG1, kappa, V domains shown)
VH: QVQLVQSGAEVKKPGASVKVSCKASGYTFTDHYMHWVRQAPGQGLEWMGYIFPNNGVSGYNQNFKDRVTMTRDTSTSTVYMELSSLRSEDTAVYYCARRQLGLGTMDYWGQGTLVTVSS
VL: DIQMTQSPSSLSASVGDRVTITCRASKSVSTSGYNYMHWYQQKPGKAPKLLIYLASNLESGVPSRFSGSGSGTDFTLTISSLQPEDFATYYCQHSKELPWTFGQGTKVEIKR
On to B15, for which the EC50 with human B7-H3 (human) [1] was determined as 767 pM.

In general, EC50 refers to the concentration that produces a half-maximal response. A low value points to an effect from little substance.

For the origin of these results see US20250188167A1.
